Test results as given in patent publication US6905849B1, “Process for preparing clavam derivatives by using polypeptides having β-lactam synthetase activity” (SmithKline Beecham plc, priority 1998, dated 2005).

Assay: Assay for conversion of compound (III) to compound (IV) by protein extracts, HPLC detection
Assay type: biochemical, Streptomyces clavuligerus
Details: recombinant orf3 protein from E. coli BL21(DE3)/pBLS3; ATP, Mg(AcO)2, MOPS pH 7.4; 37 °C, 15 minutes; underivatised and benzoin-derivatised HPLC
Experimental: The crude extracts prepared from the recombinant E. coli containing the pBLS3vector (example 5) and the purified protein product (example 6) were tested for the ability to catalyse the conversion of the compound (III) to compound (IV). Both compound (III) and compound (IV) were prepared synthetically following previously published methods (Baldwin et al J. Chem Soc. Chem Comm. 1993 p500-2 and Elson et al J. Chem Soc. Chem Comm. 1993 p1212-4). Protein extracts were assayed for the conversion of compound (III) to compound (IV) under the following conditions: [table] The above mixture was heated at 37 ° C. for 15 minutes before being analysed by the HPLC methods described below. This assay was carried out using the following equipment and conditions • Waters 746 data module • Waters 600E system controller • Waters 712 WISP injector • Waters 848 tunable absorbance detector The protocol used was Kai et al. (M. Kai, T. Miyazaki, M. Yamaguchi, Y Ohkura, J. Chromatog. 268, 417-424, 1983) which assays for compounds containing guanidino functionalities using a fluorescence detector. […]

B1: orf3 product: polypeptide encoded by orf3 of the Streptomyces clavuligerus clavulanic acid gene cluster (SEQ ID NO:2), 56 KDa, β-lactam synthetase (protein, listed as Streptomyces clavuligerus)
chain: GAPVLPAAFGFLASARTGGGRAPGPVFATRGSHTDIDTPQGERSLAATLVHAPSVAPDRAVARSLTGAPTTAVLAGEIYNRDELLSVLPAGPAPEGDAELVLRLLERYDLHAFRLVNGRFATVVRTGDRVLLATDHAGSVPLYTCVAPGEVRASTEAKALAAHRDPKGFPLADARRVAGLTGVYQVPAGAVMDIDLGSGTAVTHRTWTPGLSRRILPEGEAVAAVRAALEKAVAQRVTPGDTPLVVLSGGIDSSGVAACAHRAAGELDTVSMGTDTSNEFREARAVVDHLRTRHREITIPTTELLAQLPYAVWASESVDPDIIEYLLPLTALYRALDGPERRILTGYGADIPLGGMHREDRLPALDTVLAHDMATFDGLNEMSPVLSTLAGHWTTHPYWDREVLDLLVSLEAGLKRRHGRDKWVLRAAMADALPAETVNRPKLGVHEGSGTTSSFSRLLLDHGVAEDRVHEAKRQVVRELFDLTVGGGRHPSEVDTDDVVRSVADRTARGAA
  β-lactam synthetase activity: conversion of compound (III) to compound (IV): catalysis the conversion of compound (III) to compound (IV)
